We go through one molecule from patent US20170174734A1, “DR6 Receptor Mediates the Leukemia Differentiation Activity of Angiocidin: A Potent Anti-Tumor Peptide” (Temple University-Of The Commonwealth System of Higher …, priority 2014, published 2017).

This assay has as its system THP-1 cells. The assay can be described thus: Angiocidin-mediated up-regulation of CD14 in THP-1 cells, flow cytometry. Type of assay: cell-based. The following applies: 2.5 μg/ml Angiocidin plus 10 μg/ml rabbit anti-DR6 IgG or 0.10 μg/ml DR6-Fc, 24 hours, 1% fetal calf serum. The procedure: THP-1 cells were grown for 24 hours in RPMI containing 1% fetal calf serum (NT) or containing the following: 2.5 μg/ml Angiocidin, 0.10 μg/ml DR6-Fc, 2.5 μg/ml Angiocidin plus 0.10 μg/ml, DR6-Fc, 10 μg/ml rabbit IgG, 2.5 μg/ml Angiocidin plus 10 μg/ml rabbit IgG, 10 μg/ml rabbit anti-DR6 IgG, 2.5 μg/ml Angiocidin plus 10 μg/ml rabbit anti-DR6 IgG. Percent CD14 positive cells were measured by flow cytometry.
(In flow cytometry, cells or beads pass a laser one at a time.)

B1: DR6-Fc: DR6 extracellular-Fc chimeric recombinant protein (protein)
chain: QPEQKASNLIGTYRHVDRATGQVLTCDKCPAGTYVSEHCTNTSLRVCSSCPVGTFTRHENGIEKCHDCSQPCPWPMIEKLPCAALTDRECTCPPGMFQSNATCAPHTVCPVGWGVRKKGTETEDVRCKQCARGTFSDVPSSVMKCKAYTDCLSQNLVVIKPGTKETDNVCGTLPSFSSSTSPSPGTAIFPRPEHMETHEVPSSTYVPKGMNSTESNSSASVRPKVLSSIQEGTVPDNTSSARGKEDVNKTLPNLQVVNHQQGPHHRHILKLLPSMEATGGEKSSTPIKGPKRGHPRQNLHKHFDINEH
modifications: left off: a dimerising Fc or GST
notes: DR6 extracellular-Fc chimeric recombinant protein
With B1, the “Inhibition of angiocidin-mediated upregulation of CD14 (percent CD14 positive cells)” value is given as “inhibit the angiocidin-mediated upregulation of CD14”.
